{"source": "paper PMC3526269", "about": "“Demethylation initiated by ROS1 glycosylase involves random sliding along DNA”", "binders": {"B1": {"name": "S (5-meC:G) (dsDNA)", "DNA 1": "TCACGCGGGATCAATGTGTTCTTTCAGCTCCGGTCACGCTGACCAGGAATACCTCACTACC", "DNA 2": "GGTAGTGAGGTATTCCTGGTCAGCGTGACCGGAGCTGAAAGAACACATTGATCCCGCGTGA", "modifications": "one central 5-meC in CG context"}, "B2": {"name": "SL1-2 (T:G) (dsDNA)", "DNA 1": "B1 DNA 1 with C31T", "DNA 2": "GGTAGTGAGGTATTCCCCCGTAAGGGTCCGTAAGGATGGTCAGCGTGACCGGAGCTGAAAGAACACCCGTAAGGGTCCGTAAGGACATTGATCCCGCGTGA"}, "B3": {"name": "SL1-2 (homoduplex, no target) (dsDNA)", "DNA 1": "B1 DNA 1", "DNA 2": "B2 DNA 2"}, "B4": {"name": "S (T:G) (dsDNA)", "DNA 1": "B1 DNA 1 with C31T", "DNA 2": "B1 DNA 2"}, "B5": {"name": "SL1-2 (5-meC:G) (dsDNA)", "DNA 1": "B1 DNA 1", "DNA 2": "B2 DNA 2", "modifications": "one central 5-meC in CG context"}, "B6": {"name": "S (homoduplex, no target) (dsDNA)", "DNA 1": "B1 DNA 1", "DNA 2": "B1 DNA 2"}, "B7": {"name": "SL1 (5-meC:G) (dsDNA)", "DNA 1": "B1 DNA 1", "DNA 2": "GGTAGTGAGGTATTCCCCCGTAAGGGTCCGTAAGGATGGTCAGCGTGACCGGAGCTGAAAGAACACATTGATCCCGCGTGA", "modifications": "one central 5-meC in CG context"}, "B8": {"name": "SL2 (5-meC:G) (dsDNA)", "DNA 1": "B1 DNA 1", "DNA 2": "GGTAGTGAGGTATTCCTGGTCAGCGTGACCGGAGCTGAAAGAACACCCGTAAGGGTCCGTAAGGACATTGATCCCGCGTGA", "modifications": "one central 5-meC in CG context"}}, "key": {"[1]": {"target": "T1, FL-ROS1 (Arabidopsis, UniProt Q9SJQ6 1-1393)", "T1 sequence": "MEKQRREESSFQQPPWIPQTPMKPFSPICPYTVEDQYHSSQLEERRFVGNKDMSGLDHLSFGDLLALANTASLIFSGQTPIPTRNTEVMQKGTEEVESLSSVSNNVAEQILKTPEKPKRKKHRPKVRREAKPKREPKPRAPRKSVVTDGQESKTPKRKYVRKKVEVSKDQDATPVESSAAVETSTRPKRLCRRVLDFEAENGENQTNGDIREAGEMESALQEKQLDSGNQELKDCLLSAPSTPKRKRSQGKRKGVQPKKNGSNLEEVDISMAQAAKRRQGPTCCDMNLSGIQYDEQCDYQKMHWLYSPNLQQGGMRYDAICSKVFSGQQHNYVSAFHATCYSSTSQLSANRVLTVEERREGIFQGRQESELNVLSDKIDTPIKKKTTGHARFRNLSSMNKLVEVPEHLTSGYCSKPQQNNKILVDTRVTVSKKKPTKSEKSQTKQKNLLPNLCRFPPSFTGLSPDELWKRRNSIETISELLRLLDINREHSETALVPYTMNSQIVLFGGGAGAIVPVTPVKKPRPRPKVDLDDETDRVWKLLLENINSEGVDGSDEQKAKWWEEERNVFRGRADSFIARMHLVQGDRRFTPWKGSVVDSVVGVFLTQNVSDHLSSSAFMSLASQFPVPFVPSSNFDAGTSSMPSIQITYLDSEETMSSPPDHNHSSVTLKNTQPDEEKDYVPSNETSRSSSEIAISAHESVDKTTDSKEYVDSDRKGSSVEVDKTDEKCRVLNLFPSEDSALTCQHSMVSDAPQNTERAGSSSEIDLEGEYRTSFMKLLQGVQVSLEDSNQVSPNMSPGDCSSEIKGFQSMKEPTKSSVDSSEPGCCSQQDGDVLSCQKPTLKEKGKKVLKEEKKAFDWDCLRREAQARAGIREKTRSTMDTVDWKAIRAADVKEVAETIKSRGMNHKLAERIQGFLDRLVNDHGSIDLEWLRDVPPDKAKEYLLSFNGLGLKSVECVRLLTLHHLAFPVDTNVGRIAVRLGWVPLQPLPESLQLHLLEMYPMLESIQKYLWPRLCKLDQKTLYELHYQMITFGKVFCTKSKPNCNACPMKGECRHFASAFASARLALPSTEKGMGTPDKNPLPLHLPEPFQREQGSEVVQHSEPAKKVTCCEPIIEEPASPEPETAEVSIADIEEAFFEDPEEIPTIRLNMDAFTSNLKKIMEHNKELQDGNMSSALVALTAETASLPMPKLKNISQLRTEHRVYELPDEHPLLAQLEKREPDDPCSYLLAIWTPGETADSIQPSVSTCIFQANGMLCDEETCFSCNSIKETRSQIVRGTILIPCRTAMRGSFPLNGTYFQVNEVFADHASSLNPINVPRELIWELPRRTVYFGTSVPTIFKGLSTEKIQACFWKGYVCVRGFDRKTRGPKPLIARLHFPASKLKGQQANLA", "assay": "EMSA; dissociates when chased with unlabelled S; EMSA: 10 nM (so in the source) Tris-HCl pH 8.0, 1 mM DTT, 10 ug/ml BSA, 1 mM EDTA, 25 C, 60 min; 100 nM probe; 0.2% agarose, 1x TAE", "conditions": "protein: recombinant; tags: N-terminal His; label: 5'-fluorescein upper strand"}, "[2]": {"target": "T2, NΔ294-ROS1 (Arabidopsis, UniProt Q9SJQ6 295-1393, del1-294)", "T2 sequence": "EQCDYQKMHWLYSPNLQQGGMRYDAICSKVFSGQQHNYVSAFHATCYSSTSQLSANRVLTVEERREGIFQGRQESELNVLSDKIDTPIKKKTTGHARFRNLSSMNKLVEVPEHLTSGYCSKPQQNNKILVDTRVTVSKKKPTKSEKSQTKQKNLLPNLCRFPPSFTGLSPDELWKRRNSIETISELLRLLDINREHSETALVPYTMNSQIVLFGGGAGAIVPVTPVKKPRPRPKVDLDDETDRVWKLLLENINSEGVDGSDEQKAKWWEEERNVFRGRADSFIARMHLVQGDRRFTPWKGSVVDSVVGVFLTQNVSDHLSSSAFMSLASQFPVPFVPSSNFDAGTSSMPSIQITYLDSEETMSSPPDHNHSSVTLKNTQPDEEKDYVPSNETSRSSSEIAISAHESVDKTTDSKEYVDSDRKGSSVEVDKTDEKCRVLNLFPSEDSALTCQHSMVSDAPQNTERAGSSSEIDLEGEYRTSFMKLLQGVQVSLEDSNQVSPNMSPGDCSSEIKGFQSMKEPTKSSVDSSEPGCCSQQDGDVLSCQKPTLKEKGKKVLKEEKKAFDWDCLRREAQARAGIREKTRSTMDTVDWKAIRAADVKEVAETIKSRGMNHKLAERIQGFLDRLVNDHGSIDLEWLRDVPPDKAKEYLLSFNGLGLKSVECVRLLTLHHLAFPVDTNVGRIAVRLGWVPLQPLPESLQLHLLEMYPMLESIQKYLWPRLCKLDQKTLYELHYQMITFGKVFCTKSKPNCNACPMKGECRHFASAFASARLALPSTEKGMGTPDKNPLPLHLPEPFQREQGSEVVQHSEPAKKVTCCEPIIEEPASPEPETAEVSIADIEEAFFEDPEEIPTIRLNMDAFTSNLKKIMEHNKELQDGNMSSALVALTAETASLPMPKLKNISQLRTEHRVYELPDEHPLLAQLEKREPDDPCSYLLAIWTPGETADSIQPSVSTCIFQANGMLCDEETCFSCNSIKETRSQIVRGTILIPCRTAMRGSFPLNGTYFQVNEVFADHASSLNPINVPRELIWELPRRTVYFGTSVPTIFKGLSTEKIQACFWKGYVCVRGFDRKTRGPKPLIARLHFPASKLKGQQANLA", "assay": "EMSA; dissociates when chased with unlabelled S; needs higher protein than SL1-2; EMSA: 10 nM (so in the source) Tris-HCl pH 8.0, 1 mM DTT, 10 ug/ml BSA, 1 mM EDTA, 25 C, 60 min; 100 nM probe; 0.2% agarose, 1x TAE", "conditions": "protein: recombinant; tags: N-terminal His; label: 5'-fluorescein upper strand"}, "[3]": {"target": "T1, FL-ROS1", "assay": "EMSA; remains bound when chased with mismatched S; affinity not higher than for S; EMSA: 10 nM (so in the source) Tris-HCl pH 8.0, 1 mM DTT, 10 ug/ml BSA, 1 mM EDTA, 25 C, 60 min; 100 nM probe; 0.2% agarose, 1x TAE", "conditions": "protein: recombinant; tags: N-terminal His; label: 5'-fluorescein upper strand; four-way junction obstacles on both sides; central T:G mispair"}, "[4]": {"target": "T1, FL-ROS1", "assay": "EMSA; chase with competitor; similar to methylated SL1-2; EMSA: 10 nM (so in the source) Tris-HCl pH 8.0, 1 mM DTT, 10 ug/ml BSA, 1 mM EDTA, 25 C, 60 min; 100 nM probe; 0.2% agarose, 1x TAE", "conditions": "protein: recombinant; tags: N-terminal His; label: 5'-fluorescein upper strand; four-way junction obstacles on both sides"}, "[5]": {"target": "T1, FL-ROS1", "assay": "EMSA; dissociates when chased with mismatched S; EMSA: 10 nM (so in the source) Tris-HCl pH 8.0, 1 mM DTT, 10 ug/ml BSA, 1 mM EDTA, 25 C, 60 min; 100 nM probe; 0.2% agarose, 1x TAE", "conditions": "protein: recombinant; tags: N-terminal His; label: 5'-fluorescein upper strand; central T:G mispair"}, "[6]": {"target": "T1, FL-ROS1", "assay": "EMSA; remains bound when chased with unlabelled S; affinity not higher than for S; EMSA: 10 nM (so in the source) Tris-HCl pH 8.0, 1 mM DTT, 10 ug/ml BSA, 1 mM EDTA, 25 C, 60 min; 100 nM probe; 0.2% agarose, 1x TAE", "conditions": "protein: recombinant; tags: N-terminal His; label: 5'-fluorescein upper strand; four-way junction obstacles on both sides"}, "[7]": {"target": "T2, NΔ294-ROS1", "assay": "EMSA; binds at lower concentration than to S; displaced at high competitor S; EMSA: 10 nM (so in the source) Tris-HCl pH 8.0, 1 mM DTT, 10 ug/ml BSA, 1 mM EDTA, 25 C, 60 min; 100 nM probe; 0.2% agarose, 1x TAE", "conditions": "protein: recombinant; tags: N-terminal His; label: 5'-fluorescein upper strand; four-way junction obstacles on both sides"}, "[8]": {"target": "T1, FL-ROS1", "assay": "EMSA; chase with competitor; similar to methylated S; EMSA: 10 nM (so in the source) Tris-HCl pH 8.0, 1 mM DTT, 10 ug/ml BSA, 1 mM EDTA, 25 C, 60 min; 100 nM probe; 0.2% agarose, 1x TAE", "conditions": "protein: recombinant; tags: N-terminal His; label: 5'-fluorescein upper strand"}, "[9]": {"target": "T2, NΔ294-ROS1", "assay": "EMSA; easier to dissociate by competitor S than FL-ROS1; EMSA: 10 nM (so in the source) Tris-HCl pH 8.0, 1 mM DTT, 10 ug/ml BSA, 1 mM EDTA, 25 C, 60 min; 100 nM probe; 0.2% agarose, 1x TAE", "conditions": "protein: recombinant, tags: N-terminal His, label: 5'-fluorescein upper strand, four-way junction obstacle"}, "[10]": {"target": "T1, FL-ROS1", "assay": "EMSA; low dissociation with competitor S, slightly higher than SL1-2; EMSA: 10 nM (so in the source) Tris-HCl pH 8.0, 1 mM DTT, 10 ug/ml BSA, 1 mM EDTA, 25 C, 60 min; 100 nM probe; 0.2% agarose, 1x TAE", "conditions": "protein: recombinant, tags: N-terminal His, label: 5'-fluorescein upper strand, four-way junction obstacle"}}, "note": "Positions count from the first letter of the chain named.", "data": [{"binder": "B1", "values": [{"measurement": "binding result", "setting": "[1]", "value": "binds"}, {"measurement": "binding result", "setting": "[2]", "value": "binds"}]}, {"binder": "B2", "values": [{"measurement": "binding result", "setting": "[3]", "value": "binds"}]}, {"binder": "B3", "values": [{"measurement": "binding result", "setting": "[4]", "value": "binds"}]}, {"binder": "B4", "values": [{"measurement": "binding result", "setting": "[5]", "value": "binds"}]}, {"binder": "B5", "values": [{"measurement": "binding result", "setting": "[6]", "value": "binds"}, {"measurement": "binding result", "setting": "[7]", "value": "binds"}]}, {"binder": "B6", "values": [{"measurement": "binding result", "setting": "[8]", "value": "binds"}]}, {"binder": "B7", "values": [{"measurement": "binding result", "setting": "[9]; left", "value": "binds"}, {"measurement": "binding result", "setting": "[10]; left", "value": "binds"}]}, {"binder": "B8", "values": [{"measurement": "binding result", "setting": "[9]; right", "value": "binds"}, {"measurement": "binding result", "setting": "[10]; right", "value": "binds"}]}]}
